# Columns and labels:
# [1] = target: PPR10 ND variant motifs 6 and 7 (position 6, 1') changed to N6,D1' (Zea mays) (UniProt B8Y6I0); experiment: EMSA; settings: RNA 15 pM
# [2] = target: PPR10 NS variant motifs 6 and 7 (position 6, 1') changed to N6,S1' (Zea mays) (UniProt B8Y6I0); experiment: EMSA; settings: RNA 15 pM
substance,measurement,setting,value
atpH UU-substituted RNA,Kd,[1],3 nM
same,Kd,[2],20 nM
atpH CC-substituted RNA,Kd,[1],17 nM
same,Kd,[2],9 nM
